We go through three molecules from US8221990B2, “Screening GPR12 receptor for substances having Nesfatin-1-like action, or which regulate Nesfatin-1 action” (Teijin Pharma Limited, priority 2007, dated 2012).

The target of one assay is T1, GPR12 (Mus musculus, UniProt P35412).
T1 construct: in which GPR12 was endogenously expressed; endogenous in cells; host or cells: NB41A3 cells (ATCC-CCL147), mouse brain neuroblastoma
T1 sequence (P35412 1-334): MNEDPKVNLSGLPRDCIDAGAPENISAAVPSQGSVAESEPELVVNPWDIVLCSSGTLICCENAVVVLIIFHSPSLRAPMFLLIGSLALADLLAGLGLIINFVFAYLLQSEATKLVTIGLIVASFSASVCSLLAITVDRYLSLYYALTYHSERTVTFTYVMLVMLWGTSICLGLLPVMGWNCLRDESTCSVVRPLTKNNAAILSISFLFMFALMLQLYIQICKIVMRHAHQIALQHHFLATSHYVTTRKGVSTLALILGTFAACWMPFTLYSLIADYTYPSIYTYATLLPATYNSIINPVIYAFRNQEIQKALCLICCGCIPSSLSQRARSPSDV
As to the kind of experiment: Expression of a CRE-reporter gene (pCRE-Luc luciferase) in NB41A3 cells expressing GPR12 endogenously. In kind it is cell-based. The note with it: NB41A3 cells transfected with pCRE-Luc, 10^-12 M to 10^-8 M, 16 hours. The procedure: NB41A3 cells (ATCC-CCL147), a cell strain derived from mouse brain neuroblastoma, in which GPR12 was endogenously expressed were used. The confluent NB41A3 cells were recovered in a 10-cm dish, plated onto 10 cm-dishes after dividing the cell colony in four quarters, and cultured for one day in Ham's F12K medium. The cells were transected with 5 μg of the reporter plasmid pCRE-Luc (Stratagene Corporation, Catalog No. 219074) in which TATA-BOX and luciferase were incorporated into downstream of CRE by a calcium phosphate method. The cells were washed with Ham's F12K medium 16 hours after the transfection. Ham's F12K medium containing no test substance (Vehicle), Ham's F12K medium containing 10^−10 M of Nesfatin-1 M30 (Mid-Segment: SEQ ID NO: 11), Ham's F12K medium containing 10^−10 M of a modified peptide M30_Ag-A (SEQ ID NO: 50) (M30_Ag-A), and Ham's F12K medium containing 10^−10 M of a modified peptide M30_MSH-A (SEQ ID NO: 51) […] were added to the cells, and the resultant mediums were cultured under the conditions of 37° C. and 5% CO2 for 16 hours. After the culturing, the cells were washed twice with phosphate-buffered saline (PBS), lysed with 4 mL of lysis buffer (an aqueous solution containing 25 mM of glycylglicine (pH 7.8), 15 mM of magnesium sulfate, 4 mM of glycol ether diaminetetraacetic acid (EGTA), 1 mM of dithiothreitol (DTT), and 1% (volume/volume) of Triton X-100). […] After adding 200 μL of 0.2 mM of d-luciferin to the diluted cell lysate, the luminescence was measured for 10 seconds by a luminometer, and the amount of luminescence (units) was determined. Further, the amount of protein in each cell lysate was measured by BCA™ Protein Assay Kit-Reducing Agent Compatible (Pearce, Catalog No. 23250), and the value obtained by dividing the amount of luminescence (units) by the amount of protein (μg) in a sample was determined as a luciferase activity. […] The cells were cultured for 16 hours, and then the level of luciferase activity was also determined.

Assay [1] in a line: Amount of food intake in a mouse after intraperitoneal administration. As to conditions: C57BL/6J male mouse, 0.25 nmol per gram of body weight, 0 to 3 hours. In kind it is in vivo. The procedure: A 7-week-old C57BL/6J strain male mouse (CLEA Japan, Inc.) was used as an experimental animal. After purchasing the mouse, the mouse was raised at 22° C. in cycles of the 12-hour light period from 6 a.m. to 6 p.m. and the 12-hour dark period from 6 p.m. to 6 a.m. on the next morning with free access to pelleted feed (CLEA Japan, Inc., CE-2).
A 5 nmol aliquot of Nesfatin-1M30 (Mid-segment, SEQ ID NO: 11), M30_Ag-A (SEQ ID NO: 50), or M30_MSH-A (SEQ ID NO: 51) was dissolved in each 100 μL of saline, and each of the resultant solutions was administered intraperitoneally to a C57BL/6J mouse at a dose of 0.25 nmol per gram of body weight of the mouse. In the control group, only saline (Vehicle) was administered. Each mouse (5 mice in each group) was intraperitoneally given a single injection of a sample using a tuberculin syringe with 26 G needle, immediately before the dark period (6 p.m.).
Each mouse administered was placed in an individual cage, and the amount of food intake was determined by measuring the decreased amount of the pelleted feed during the period from 0 to 3 hours after the administration of a test substance. In the mouse administered with each test sample, the amount of food intake during 3 hours after the administration (g/3 h) is shown in FIG. 6.

The next assay addresses T2, mouse GPR12 (Mus musculus, UniProt P35412).
T2 construct: expressed in transfected cells
T2 sequence (P35412 1-334): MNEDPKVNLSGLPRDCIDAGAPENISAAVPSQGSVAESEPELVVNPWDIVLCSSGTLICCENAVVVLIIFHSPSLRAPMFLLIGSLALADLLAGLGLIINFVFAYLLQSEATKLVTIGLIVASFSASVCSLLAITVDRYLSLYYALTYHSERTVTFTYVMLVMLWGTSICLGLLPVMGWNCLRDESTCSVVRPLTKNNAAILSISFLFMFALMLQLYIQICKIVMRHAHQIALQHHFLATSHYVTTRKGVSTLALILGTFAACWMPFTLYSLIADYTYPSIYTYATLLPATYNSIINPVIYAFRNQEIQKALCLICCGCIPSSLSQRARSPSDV
Nature of the assay: cAMP production in CHO-K1-cell stable expression system (CHO-K1-GPR12). In kind it is cell-based. As to conditions: CHO-K1-GPR12, peptide 10^-9 M, Forskolin 10^-5 M, 30 minutes. The procedure:
The preparation of cells stably expressing GPR12 was conducted by a conventional method, and hereinafter described briefly. A vector (pcDNA3.1-GPR12) in which a gene (cDNA) encoding mouse GPR12 (SEQ ID NO: 8) was inserted at the downstream of a CMV promoter of pcDNA3.1 (TM) (Invitrogen Corporation) was prepared, 10 μg of the vector was mixed with 250 μL of medium OPTI-MEM™ (Invitrogen Corporation), and 10 μg of Lipofectamine™ 2000 Reagent (Invitrogen Corporation) was mixed with 250 μL of medium OPTI-MEM™, 5 minutes later both mixtures were mixed, and the resultant mixture was left over at room temperature for 20 minutes to prepare a transfection reagent. Chinese hamster ovary cells (CHO-K1) [ATCC Cat. No. CCl-61] plated onto a 6-well plate at 1.5×10^6 cells/well on the previous day in advance were washed with medium OPTI-MEM™ once, and the above-mentioned transfection reagent (vector and Lipofectamine™ 2000 Reagent) was added to the cells dropwise to perform transfection. The resultant transfected cells were incubated at 37° C. for 5 hours in a CO2 incubator, and then the medium was replaced by Ham's F12 medium. Further, the next day the medium was exchanged with Ham's F12 medium containing 100 μg/mL of Geneticin® (Invitrogen Corporation), and furthermore the next day the medium was exchanged with the same medium containing 200 μg/mL of Geneticin®, and the following day the medium was exchanged with the same medium containing 700 μg/mL of Geneticin®, and after that, culturing was continued under the conditions of 37° C. and 5% CO2 in a medium containing Geneticin® at the same concentration. […]
The measured intracellular cAMP level was evaluated in terms of a ratio (Fold) of each intracellular cAMP level with respect to the mean of the intracellular cAMP level in the (−) group that is set as unity, in which CHO-K1-GPR12 cells were cultured in the medium containing no peptide.
Background: Cyclic AMP is a second messenger, typically raised through Gs and lowered through Gi signalling.

Another assay addresses T3, mGPR12 (Mus musculus, UniProt P35412).
T3 sequence (P35412 1-334): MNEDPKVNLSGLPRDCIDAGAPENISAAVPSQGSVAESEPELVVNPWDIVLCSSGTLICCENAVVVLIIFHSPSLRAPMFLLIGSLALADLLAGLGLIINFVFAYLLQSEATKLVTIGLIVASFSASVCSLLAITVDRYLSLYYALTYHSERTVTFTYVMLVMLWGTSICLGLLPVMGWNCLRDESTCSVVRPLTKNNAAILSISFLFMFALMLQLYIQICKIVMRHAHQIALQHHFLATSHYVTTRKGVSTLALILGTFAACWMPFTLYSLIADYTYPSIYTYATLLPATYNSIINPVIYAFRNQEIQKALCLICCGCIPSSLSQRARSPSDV
As to the kind of experiment: cAMP production in HeLa-cell transient expression system. In kind it is cell-based. Set-up: expressed in transfected cells; host or cells: HeLa cells (transient, lipofection). As to conditions: mGPR12-transiently expressing HeLa cells, ligand 10^-6 M. The procedure:
A GPCR expression vector prepared in Example 4 was introduced into HeLa cells by lipofection and transiently expressed.
HeLa cells were peeled off using trypsin EDTA and recovered, and plated onto a 6-well plate with 7×10^5 cells/2 mL/well to perform overnight culture using a CO2 incubator. The next day, a plasmid solution was prepared by adding 4 μg of plasmid into 250 μL of a serum-free Opti-MEM medium. On the other hand, a Lipofectamine 2000 solution was prepared by adding 10 μL of Lipofectamine 2000 (Invitrogen Corporation) into 250 μL of the serum-free Opti-MEM medium. These solutions were incubated at room temperature for 5 minutes, and the Lipofectamine 2000 solution was added bit by bit into the plasmid solution. The resultant mixture was incubated at room temperature for 20 minutes to prepare a solution for lipofection. […]
The 5× Ligand solution was added at 20 μL/well so that the final concentration may become 10^−6 M, and the plate was incubated in a CO2 incubator for 30 minutes. […] Further, in order to lyse the cells completely, the cells were frozen once at −20° C. and lysed again, and then the intracellular cAMP concentration was measured using cAMP-Screen System (Applied Biosystems, T1500).

For the molecule “M30_Ag-A: human Nesfatin-1M30 with the 11th (Leu) and 13th to 17th residues from the N-terminus substituted with alanine, SEQ ID NO: 50 (PDTGLYYDEYAKAAAAALETDKHFREKLQK; Synthetic M30_Ag-A peptide)”, in the assay with GPR12, the “concentration-dependent enhancement of the luciferase activity” value is given as “not found”. Besides, in assay [1], the “amount of food intake during 3 hours after the administration compared with control group (Vehicle)” value is given as “no difference”. For the same molecule, the “intracellular cAMP level compared with the group (-) cultured in medium containing no peptide” value with mouse GPR12 is reported as “hardly elevated”.
For “M30_MSH-A: human Nesfatin-1M30 with the 22nd to 25th residues from the N-terminus substituted with alanine, SEQ ID NO: 51 (PDTGLYYDEYLKQVIDVLETDAAAAEKLQK; Synthetic M30_MSH-A peptide)”, the “concentration-dependent enhancement of the luciferase activity” value with GPR12 is listed as “observed”. The “amount of food intake during 3 hours after the administration compared with control group (Vehicle)” value in assay [1] is recorded as “significant decrease of the food intake”. Besides, in the assay with mouse GPR12, the “intracellular cAMP level compared with the group (-) cultured in medium containing no peptide” value is “about 10 fold”.

B1: mouse Nesfatin-1: recombinant mouse Nesfatin-1 (82 amino acids) expressed in Escherichia coli as a GST-His fusion protein and cleaved by thrombin (protein)
chain: VPIDVDKTKVHNTEPVENARIEPPDTGLYYDEYLKQVIEVLETDPHFREKLQKADIEEIRSGRLSQELDLVSHKVRTRLDEL
As to B1, the cAMP production entry with mGPR12 (with Forskolin addition (2 μM)) and in the assay with mGPR12 (without Forskolin addition) was “increase in cAMP production was confirmed” throughout.
